Data: patent US12186374B2 (Sanofi-Aventis Deutschland GmbH, priority 2014, dated 2025)

System: patients with Type 2 diabetes mellitus (T2DM)
Test: Treatment-emergent adverse events incl. serious, fatal, leading to discontinuation (Example 2)
[1] = PT ≥3% in any treatment group, Safety population

Gly(A21)-Arg(B31)-Arg(B32)-human insulin [Insulin Glargine]
Diarrhea, % of patients (Example 2): 4.3% | Nausea, % of patients (Example 2): 3.6% | Nausea, number of patients (Example 2): 17 patients | Overall incidence of gastrointestinal adverse events (Example 2): 12.6% | Patients reporting treatment-emergent adverse events, % (Example 2): 48.6% | Patients reporting treatment-emergent adverse events, number (Example 2): 227 patients | Patients who withdrew from treatment due to TEAEs (Example 2): 1.9% | Patients with at least 1 TEAE leading to death (Example 2): 3 patients | Serious TEAEs, % of patients (Example 2): 4.1% | Serious TEAEs, number of patients (Example 2): 19 patients | Upper respiratory tract infection, % of patients (Example 2): 4.9% | Withdrawals caused by gastrointestinal adverse events (Example 2): 0.2% | TEAE: Back pain [1]: 10 (2.1%) n (%) | TEAE: Diarrhoea [1]: 20 (4.3%) n (%) | TEAE: Dizziness [1]: 7 (1.5%) n (%) | TEAE: Headache [1]: 15 (3.2%) n (%) | TEAE: Influenza [1]: 11 (2.4%) n (%) | TEAE: Nasopharyngitis [1]: 25 (5.4%) n (%) | TEAE: Nausea [1]: 17 (3.6%) n (%) | TEAE: Upper respiratory tract infection [1]: 23 (4.9%) n (%) | TEAE: Vomiting [1]: 7 (1.5%) n (%) | Serious TEAE: Acquired phimosis (PT, Safety population): 0 n (%) | Serious TEAE: Acute kidney injury (PT, Safety population): 0 n (%) | Serious TEAE: Acute myocardial infarction (PT, Safety population): 1 (0.2%) n (%) | Serious TEAE: Acute pulmonary oedema (PT, Safety population): 1 (0.2%) n (%) | Serious TEAE: Anaphylactic reaction (PT, Safety population): 0 n (%) | Serious TEAE: Angioedema (PT, Safety population): 0 n (%) | Serious TEAE: Bladder prolapse (PT, Safety population): 1 (0.2%) n (%) | Serious TEAE: Bronchitis (PT, Safety population): 1 (0.2%) n (%) | Serious TEAE: Calculus urinary (PT, Safety population): 1 (0.2%) n (%) | Serious TEAE: Cardiac failure acute (PT, Safety population): 1 (0.2%) n (%) | Serious TEAE: Cardiac failure chronic (PT, Safety population): 1 (0.2%) n (%) | Serious TEAE: Cardiac failure congestive (PT, Safety population): 1 (0.2%) n (%) | Serious TEAE: Cervical dysplasia (PT, Safety population): 0 n (%) | Serious TEAE: Cholecystitis chronic (PT, Safety population): 0 n (%) | Serious TEAE: Chronic obstructive pulmonary disease (PT, Safety population): 1 (0.2%) n (%) | Serious TEAE: Comminuted fracture (PT, Safety population): 1 (0.2%) n (%) | Serious TEAE: Coronary artery disease (PT, Safety population): 1 (0.2%) n (%) | Serious TEAE: Costochondritis (PT, Safety population): 1 (0.2%) n (%) | Serious TEAE: Death (PT, Safety population): 0 n (%) | Serious TEAE: Diabetes mellitus inadequate control (PT, Safety population): 0 n (%) | Serious TEAE: Dyspnoea (PT, Safety population): 1 (0.2%) n (%) | Serious TEAE: Electrocardiogram ST-T segment abnormal (PT, Safety population): 0 n (%) | Serious TEAE: Erysipelas (PT, Safety population): 0 n (%) | Serious TEAE: Febrile infection (PT, Safety population): 0 n (%) | Serious TEAE: Hydronephrosis (PT, Safety population): 1 (0.2%) n (%) | Serious TEAE: Hypertension (PT, Safety population): 1 (0.2%) n (%) | Serious TEAE: Lacunar infarction (PT, Safety population): 1 (0.2%) n (%) | Serious TEAE: Lipase increased (PT, Safety population): 1 (0.2%) n (%) | Serious TEAE: Lung cancer metastatic (PT, Safety population): 0 n (%) | Serious TEAE: Lung neoplasm malignant (PT, Safety population): 0 n (%) | Serious TEAE: Meningitis staphylococcal (PT, Safety population): 0 n (%) | Serious TEAE: Metabolic acidosis (PT, Safety population): 0 n (%) | Serious TEAE: Metastases to liver (PT, Safety population): 0 n (%) | Serious TEAE: Metrorrhagia (PT, Safety population): 0 n (%) | Serious TEAE: Myocardial infarction (PT, Safety population): 1 (0.2%) n (%) | Serious TEAE: Non-cardiac chest pain (PT, Safety population): 1 (0.2%) n (%) | Serious TEAE: Oesophagitis (PT, Safety population): 0 n (%) | Serious TEAE: Palpitations (PT, Safety population): 0 n (%) | Serious TEAE: Pancreatic carcinoma (PT, Safety population): 1 (0.2%) n (%) | Serious TEAE: Pancytopenia (PT, Safety population): 1 (0.2%) n (%) | Serious TEAE: Pneumonia (PT, Safety population): 1 (0.2%) n (%) | Serious TEAE: Prostate cancer recurrent (PT, Safety population): 1 (0.2%) n (%) | Serious TEAE: Pyelonephritis acute (PT, Safety population): 1 (0.2%) n (%) | Serious TEAE: Radiculopathy (PT, Safety population): 0 n (%) | Serious TEAE: Renal colic (PT, Safety population): 0 n (%) | Serious TEAE: Respiratory failure (PT, Safety population): 0 n (%) | Serious TEAE: Spinal osteoarthritis (PT, Safety population): 0 n (%) | Serious TEAE: Squamous cell carcinoma of skin (PT, Safety population): 0 n (%) | Serious TEAE: Squamous cell carcinoma of the oral cavity (PT, Safety population): 1 (0.2%) n (%) | Serious TEAE: Tendon rupture (PT, Safety population): 0 n (%) | Serious TEAE: Thyroid adenoma (PT, Safety population): 1 (0.2%) n (%) | Serious TEAE: Toxicity to various agents (PT, Safety population): 0 n (%) | Serious TEAE: Transient ischaemic attack (PT, Safety population): 0 n (%) | Serious TEAE: Urinary tract infection (PT, Safety population): 0 n (%) | Serious TEAE: Urosepsis (PT, Safety population): 1 (0.2%) n (%) | Serious TEAE: Urticaria (PT, Safety population): 0 n (%) | TEAE leading to death: Acute myocardial infarction (PT, Safety population): 1 (0.2%) n (%) | TEAE leading to death: Acute pulmonary oedema (PT, Safety population): 1 (0.2%) n (%) | TEAE leading to death: Cardiac failure acute (PT, Safety population): 1 (0.2%) n (%) | TEAE leading to death: Cardiac failure congestive (PT, Safety population): 0 n (%) | TEAE leading to death: Death (PT, Safety population): 0 n (%) | TEAE leading to death: Lung cancer metastatic (PT, Safety population): 0 n (%) | TEAE leading to death: Squamous cell carcinoma of the oral cavity (PT, Safety population): 1 (0.2%) n (%) | TEAE leading to permanent treatment discontinuation: Abdominal distension (PT, Safety population): 0 n (%) | TEAE leading to permanent treatment discontinuation: Abdominal pain (PT, Safety population): 0 n (%) | TEAE leading to permanent treatment discontinuation: Acute myocardial infarction (PT, Safety population): 1 (0.2%) n (%) | TEAE leading to permanent treatment discontinuation: Acute pulmonary oedema (PT, Safety population): 1 (0.2%) n (%) | TEAE leading to permanent treatment discontinuation: Alanine aminotransferase increased (PT, Safety population): 0 n (%)
